Assay results as given in patent publication US6613875B1, “Cyclic peptide tube” (The Scripps Research Institute, priority 1993, dated 2003).
Square brackets hold non-standard residues; d marks the D form. Peptide text beside a SMILES is read from it. dNMeA = CN[C@H](C)C(=O)O

What was measured:
[1] = Proton transport (collapse of pH gradient) in vesicles with entrapped 5(6)-carboxyfluorescein; assay type: biochemical; conditions: vesicles pH 6.5 inside, pH 5.5 outside; 25° C.; equal molar amounts of channel forming compounds
From the text: The proton efflux is expressed in terms of the fractional change in the fluorescence intensity of vesicle entrapped 5(6)-carboxyfluorescein as a function of time (sampling time was at 0.3 seconds interval). Equal molar amounts of channel forming compounds were used in each experiment to allow direct comparisons of channel-mediated proton transport activity. The amount of added channel forming compounds in each experiment ranged from of 2 to 20 nmoles corresponding to approximately 150 channels per liposome for the lowest concentrations to 1100 channels per liposome for the highest amount of added compounds.
Formation of transmembrane channels was also inferred from its highly efficient proton transport activity. Vesicles were prepared having pH 6.5 inside and pH 5.5 in the outside bulk solution. The collapse of the imposed pH gradient in these vesicles, upon formation of the putative transmembrane channel structure, was studied by monitoring the fluorescence intensity of an entrapped pH-sensitive dye. (V.E. Carmichael et al, in J.Am. Chem. Soc. (1989), vol. 111, pages 767-769). […] Unilamellar vesicles were prepared by the reverse-phase evaporation using DPPC, OPPC, cholestrol in the ratio of 1:1:2 in a solution containing 5(6)-carboxyfluorescein (20 mM in phosphate/saline buffer: 137 mM NaCl, 2.6 mM KCl, 6.4 mM Na2HPO4, 1.4 mM KH2PO4, pH 6.5) according to the method of F. Szoka et al. in Proc. Natl. Acad. Sci. USA (1978), vol. 75, pages 4194-4198. […] Vesicles formed in this way are approximately 150 nanometer in diameter as determined by electron microscopy. […] To the cuvett, through an injector port, […] of the channel forming compounds in DMSO was added with continuous fluorescence monitoring at 520 nm (excitation at 470 nm). The observed data were then normalized for comparison into the fractional change in fluorescence ((I0−It)/(I0−I∞)) (V. E. Carmichael et al, in J.Am. Chem. Soc. (1989), vol. 111, pages 767-769)). […]

[2] = pH dependent solubility of peptide subunit in aqueous media; assay type: physicochemical
From the text: FIG. 17 illustrates the hydrogen bonding of molecular tubes constructed with cyclic peptide 1.
The design, synthesis, and characterization of a molecular tube, i.e., a cyclic peptide tube or “organic nanotube,” is described. A rationally designed 24-membered ring peptide structure can be constructed and shown to undergo a proton-triggered self-assembly to produce tubular structures hundreds of nanometers long, with internal van der Waals diameter of 7 to 8 Å. Formation of tubular structures is established by Electron Microscopy (EM), electron diffraction studies, and Fourier Transformed Infrared Spectroscopy (FT-IR). A three-dimensional model of the molecular tube consistent with the experimental observations is also presented. As opposed to the recently identified closed concentric graphite tubes, cyclic peptide tubes, by virtue of the cyclic nature of their components, are open ended structures and have uniform shape and internal diameter, e.g., Tsang, S. C. et al. (1993), Nature 362, 520-522 and Ajayan, P. M. et al. (1993), Nature 362, 522-525 (1993). The proton-triggered self-assembly process described herein is a highly convergent approach in which numerous ring-shaped peptide subunits interact through an extensive network of hydrogen bonds to form molecular tube structures. Example I features an eight-residue cyclic peptide with the following sequence: cyclo[-(D-Ala-Glu-D-Ala-Gln)2-]. (Sequence No.: 1) In designing the subunit, it is shown that cyclic peptides with an even number of alternating D- and L-amino acids can adopt or sample a low energy ring-shaped flat conformation in which all backbone amide functionalities lie approximately perpendicular to the plane of the structure. In this conformation, subunits can stack in an anti-parallel fashion and participate in backbone-backbone intermolecular hydrogen bonding to furnish a contiguous β-sheet structure. Moreover, because of the alternating D- and L-amino acid sequence, peptide side chains must \necessarily lie on the exterior of the ensemble thereby creating the desired hollow tubular core structure. […]

[3] = Dimerization (self-assembly) of N-methylated cyclic peptide in nonpolar solvents, 1H NMR / van't Hoff; assay type: physicochemical
From the text: Variable temperature NMR experiments in DMSO indicate cis-trans conformational activation barriers on the order of 16 to 17 kcal.mol^−1. However, in nonpolar solvents such as carbon tetrachloride (CCl4) or deuterochloroform (CDCl3) the peptide exists in an all trans flat-ring-shaped backbone conformation which is in dynamic equilibrium with the expected dimeric cylindrical ensemble. […] The preponderance of a flat ring-shaped backbone conformation is also indicated by the observed 7.5 Hz JNH-CaH coupling constant. Intermolecular hydrogen bonding interactions producing the stacked dimeric ensemble are signified by the expected downfield shift of the phenylalanine N—H backbone resonance from 6.98 to 8.73 ppm (JNH-CaH=8.5 Hz) and are unequivocally established by the observed exchange and NOE cross peaks in its ROESY spectrum.
Formation of a tight hydrogen bonded ensemble with an average intersubunit N—O distance of 2.95 Å is also evidenced by the appearance of an N—H stretching band in the infrared spectrum at 3309 cm^−1.
[…] […] The Ka(CCl4) reported was performed in a mixture of 84% CCl4 and 16% CDCl3 for solubility reasons.
Variable temperature studies (van't Hoff plots) establish the following thermodynamic parameters for the dimerization process in chloroform: ΔCp=−203.1 cal.K^−1.mol^−1, ΔH^0298=−11.0 kcal.mol^−1, and ΔS^0298=−23.7 e.u. which clearly supports the expected enthalpic contribution of intermolecular hydrogen bonding interactions (0.5 to 0.7 kcal.mol^−1 for each hydrogen bonding interaction) as the major driving force in the self-assembly process.
The above experiments indicate that the peptide subunit adopts a flat ring-shaped solution conformation which is energetically favored toward ring stacking and intermolecular hydrogen bonding interactions by 4.0 to 5.6 kcal.mol^−1, depending on the solvent employed. It follows then that an additive gain in free energy of stabilization is to be expected as the number of ring-stacking interactions are increased. This is particularly relevant to the self-assembled nanotubes and to the transmembrane ion channel structures that can be produced.

[4] = Incorporation of peptide subunit into lipid bilayers of large unilamellar vesicles (absorption and fluorescence spectroscopy); assay type: physicochemical; conditions: aqueous liposomal suspensions
From the text: Incorporation of the peptide subunit into lipid bilayers using large unilamellar vesicles has been established by absorption and fluorescence spectroscopy. Formation of the hydrogen-bonded transmembrane channel structure in phosphatidylcholin liposomes has been supported by FT-IR spectroscopy (FIG. 24). The observed amide-I band at 1624 cm^−1 is not only similar to the carbonyl stretching frequencies found in other nanotube structures disclosed herein, but is also consistent with the infrared spectrum of gramicidin A in similar lipid bilayers. (E. Nabedryk et al in Biophys. J. (1982), vol. 38, pages 243-249. Furthermore, the observed N-H stretching frequency at 3272 cm^−1 strongly supports the formation of a tight network of hydrogen bonds with an average intersubunit distance of 4.7 Å.
The second control peptide cyclo[-(^MeN-D-Ala-Phe)4-] which has the desirable hydrophobic surface characteristics but lacks the propensity for participating in extended hydrogen bonding network, was also designed and tested for ion transport activity. The peptide design incorporates a novel N-methylation strategy on one face of the ring structure which predisposes the subunit toward a dimeric cylindrical structure (Ghadiri, M. R., Kobayashi, K., Granja, J. R., Chadha, R., and McRee, D. E. manuscript in preparation). Such a dimeric cylindrical ensemble is approximately 10 Å thick and can not span the lipid bilayer.
The ten-residue peptide subunit employed in the present study, cyclo[-Gln-(D-Leu-Trp)4-D-Leu-], is made up of largely tryptophan and leucine residues to favor its partitioning into and self-assembly in lipid bilayers. It was synthesized on solid support^5 and characterized by ^1H NMR spectroscopy and mass spectrometry. […] This has been supported by absorption and fluorescence spectrophotometry and gel permeation studies. Formation of a hydrogen bonded transmembrane channel structure in phosphatidylcholin liposomes has been established by FT-IR spectroscopy^6. […]

Molecule: cyclo[-(Gln-D-Leu)4-] (cyclo(Q[dL]Q[dL]Q[dL]Q[dL]); SMILES CC(C)C[C@H]1NC(=O)[C@H](CCC(N)=O)NC(=O)[C@@H](CC(C)C)NC(=O)[C@H](CCC(N)=O)NC(=O)[C@@H](CC(C)C)NC(=O)[C@H](CCC(N)=O)NC(=O)[C@@H](CC(C)C)NC(=O)[C@H](CCC(N)=O)NC1=O) [cyclo[-(Gln-D-Leu)4], control peptide lacking surface characteristics for partitioning into lipid bilayers]
- apparent ion (proton) transport activity [1]: does not display any ion transport activity

Molecule: C[C@H]1NC(=O)[C@H](CCC(N)=O)NC(=O)[C@@H](C)NC(=O)[C@H](CCC(=O)O)NC(=O)[C@@H](C)NC(=O)[C@H](CCC(N)=O)NC(=O)[C@@H](C)NC(=O)[C@H](CCC(=O)O)NC1=O [cyclic peptide 1, cyclo[-(Gln-D-Ala-Glu-D-Ala)2-]] (cyclo(Q[dA]E[dA]Q[dA]E[dA]))
- solubility in aqueous media ([2]; acidic / low pH): lower water solubility
- solubility in aqueous media ([2]; acidic / low pH, listed as cyclo[-(D-Ala-Glu-D-Ala-Gln)2-]): lower solubility
- solubility in aqueous media ([2]; high (alkaline) pH): high water solubility

Molecule: cyclo[-(L-Phe-D-^Me NAla)4-] (cyclo(F[dNMeA]F[dNMeA]F[dNMeA]F[dNMeA]); SMILES C[C@@H]1C(=O)N[C@@H](Cc2ccccc2)C(=O)N(C)[C@H](C)C(=O)N[C@@H](Cc2ccccc2)C(=O)N(C)[C@H](C)C(=O)N[C@@H](Cc2ccccc2)C(=O)N(C)[C@H](C)C(=O)N[C@@H](Cc2ccccc2)C(=O)N1C) [N-methylated cap subunit / second control peptide, forms dimeric cylindrical structure]
- apparent ion (proton) transport activity [1]: does not promote proton transport activity
- association constant Ka(CCl4) of dimerization ([3]; 293 K, mixture of 84% CCl4 and 16% CDCl3, lower limit (included water)): 14000 M⁻¹
- ΔCp of dimerization ([3]; chloroform, van't Hoff plots): −203.1 cal.K^−1.mol^−1
- ΔH^0298 of dimerization ([3]; chloroform, van't Hoff plots): -11.0 kcal/mol
- ΔS^0298 of dimerization ([3]; chloroform, van't Hoff plots): −23.7 e.u.
- association constant Ka(CDCl3) of dimerization ([3]; water rigorously excluded (4 Å molecular sieves)): 2540 M⁻¹
- partitioning / incorporation into lipid bilayers [4]: partition effectively
